Data: patent US20240238445A1, “INHIBITORS AND USES THEREOF” (NEURACLE SCIENCE CO., LTD., priority 2021, published 2024)
Square brackets hold non-standard residues; d marks the D form. Ends that are not written are not given here.

How the values were obtained:
[1] = tested on: hippocampal neurons co-treated with toxic Aβ oligomer; assay: Amyloid beta-induced synapse loss in mouse primary hippocampal neurons; assay type: cell-based; details: 6.6 nM
Method: Alzheimer's disease (AD) is tightly associated with the dysmetabolism of amyloid-β (Aβ). To begin assessing whether the polypeptides provided herein (i.e., comprising the FAM19A5 binding domain of LRRC4 protein family members) could have any therapeutic effects on AD, the effect of various FB-21 peptide fragments described herein on the deformation of synapse induced by toxic Aβ oligomer and following structural recovery was assessed. Specifically, the following FB-21 peptide fragments were tested: FB-21, FB-JM-31 and FB-BBB-39 (see Example 10).
Aβ42 (#20276) peptide was purchased from AnaSpec (Fremont, USA). […]
Hippocampal neurons were treated with 6.6 nM FB-21, 6.6 nM of FB-13-JM and 6.6 nM of FB-13-BBBX2 at 14, 17 and 20 DIV to determine the level of synaptogenesis at 21 DIV by immunostaining SYP, a presynapse marker protein and PSD95, a postsynapse marker protein. To quantify fluorescence intensity for SYN and PSD95 and number of colocalized voxels between SYN and PSD95 signals, z-stack confocal images of 3 μm in depth were converted to 3D images using IMARIS software (IMARIS9.0, Bitplane AG, Zurich, Switzerland). The “Surface tool” of the IMARIS software was used to exclude all the signals detected in neuronal cell bodies, and number of colocalized voxels between SYN and PSD95 signals in neurites were calculated using the “Coloc tool”. […]

FAM19A5 protein = FAM19A5 protein (Homo sapiens, UniProt Q7Z5A7); assay: competitive inhibition ELISA; competitor: coated LRRC4B(453-576, TT/TT)-hFc
[2] = target: T1, FAM19A5 isoform 2 - LRRC4B protein complex in HEK293 cells (Homo sapiens, UniProt Q7Z5A7); assay: Immunofluorescence: dissociation of FAM19A5 from full-length LRRC4B in HEK293 cells; assay type: cell-based; details: HEK293 cells expressing FAM19A5 isoform 2 and LRRC4B, treated 30 minutes
T1 construct: expressed in transfected cells; host or cells: HEK293
Method: Since LRRC4B protein fragments containing the binding domain described in Example 2 (e.g., LRRC4B (453-576); i.e., construct #11 in Table 6) was able to bind to FAM19A5 protein with high affinity, it was next assessed whether such protein fragments could compete with naturally existing LRRC4B protein for binding to FAM19A5 protein, and thereby, dissociate the FAM19A5-LRRC4 protein family complex. Briefly, HEK293 cells expressing both FAM19A5 isoform 2 and LRRC4B protein were treated in vitro for 30 minutes with either LRRC4B (453-576)-hFc or mutant LRRC4B (453-576)-hFc (includes alanine substitutions at positions 488 and 489 of SEQ ID NO: 2; SEQ ID NO: 16) protein fragments. Then, cells were immunostained with anti-FAM19A5 (1-65) and anti-LRRC4B antibodies to determine the expression of FAM19A5 and full-length LRRC4B proteins, respectively. The hFc-fused LRRC4B protein fragments were determined using an anti-hIgG antibody. The nuclei were stained with Hoechst 33342.

[3] = target: binding of FAM19A5 protein to full-length ectodomain of the LRRC4B protein (amino acids 36-576 of SEQ ID NO: 2) (Homo sapiens, UniProt Q7Z5A7); assay: Competitive inhibition assay, plate coated with full-length ectodomain of LRRC4B (amino acids 36-576); details: increasing concentrations; FAM19A5 5 ng/mL; 100 nM coat
In short: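 Wells are coated with 100 nM LRRC4B ectodomain (aa 36-576), and 5 ng/mL recombinant FAM19A5 is added with competitor: LRRC4B deletion constructs at increasing concentrations, or synthetic peptides at 20 nM. After incubation at 37 °C, bound FAM19A5 is detected with HRP-conjugated anti-FAM19A5 (1-65) antibody.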

[4] = target: binding of FAM19A5 protein to full-length ectodomain of LRRC4 protein (Homo sapiens, UniProt Q7Z5A7); assay: Competitive inhibition assay, plate coated with full-length ectodomain of LRRC4; details: FAM19A5 5 ng/mL; 100 nM/well coat
Method: (§1) As described in Example 3, there appeared to be much similarity in the binding domains of the different members of the LRRC4 family. […] Then, recombinant FAM19A5 protein (5 ng/mL) was added in combination with one of the following: (i) LRRC4B (484-576) protein fragment, (ii) LRRC4B (453-576, AA) protein fragment, and (iii) synthetic FB-20 peptide. The plates were incubated at 37° C., and then, the amount of FAM19A5 protein bound to the coated LRRC4, LRRC4B, or LRRC4C proteins was measured using anti-FAM19A5 (1-65) antibody.

[5] = target: binding of FAM19A5 protein to full-length ectodomain of LRRC4C protein (Homo sapiens, UniProt Q7Z5A7); assay: Competitive inhibition assay, plate coated with full-length ectodomain of LRRC4C; details: FAM19A5 5 ng/mL; 100 nM/well coat
Method: as §1

Chain of binding of FAM19A5 protein to full-length ectodomain of the LRRC4B protein (amino acids 36-576 of SEQ ID NO: 2) (Q7Z5A7 44-132): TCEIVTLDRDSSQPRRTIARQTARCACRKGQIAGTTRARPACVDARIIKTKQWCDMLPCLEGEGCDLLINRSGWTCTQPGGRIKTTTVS
Chain of binding of FAM19A5 protein to full-length ectodomain of LRRC4 protein (Q7Z5A7 44-132): as above
Chain of binding of FAM19A5 protein to full-length ectodomain of LRRC4C protein (Q7Z5A7 44-132): as above
T1 sequence (Q7Z5A7 1-125 isoform Q7Z5A7-2, one chain of several): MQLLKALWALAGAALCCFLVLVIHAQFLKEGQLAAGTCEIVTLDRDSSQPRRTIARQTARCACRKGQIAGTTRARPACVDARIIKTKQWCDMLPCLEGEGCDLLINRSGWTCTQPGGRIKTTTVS

**Q.** How did the “colocalized voxels for PSD95 and synaptophysin” value [1] turn out when “nYTYFTTVTVETLETQPGEEALDEVMKTTKa ([dN]YTYFTTVTVETLETQPGEEALDEVMKTTK[dA]; also: terminal modifications n and a on first and last residues) [FB peptide with JM sequence]” was run?
**A.** significant increase in colocalized voxels

**Q.** Which fold increase in the ability to dissociate the LRRC4B-FAM19A5 complex, compared with the wild-type FB-21 (FAM19A5 protein) does the source give for GYTYFTTVTVEWYETQPGEEA [FB-21 (W12Y13)] here?
**A.** 2.9 fold

B1: LRRC4B mutant: LRRC4B (453-576) with alanine substitutions at positions 488 and 489 of SEQ ID NO: 2 (protein)
chain: VSAVDPVAAGGTGSGGGGPGGSGGVGGGSGGYTYFAAVTVETLETQPGEEALQPRGTEKEPPGPTTDGVWGGGRPGDAAGPASSSTTAPAPRSSRPTEKAFTVPITDVTENALKDLDDVMKTTK
modifications: human Fc
**Q.** With B1 as the molecule, how does the “dissociation of FAM19A5 from full-length LRRC4B protein” value [2] read?
**A.** remained largely bound to the full-length LRRC4B protein

**Q.** What about the “inhibition of FAM19A5 binding to coated full-length LRRC4B ectodomain protein (in words)” value [3] of the same molecule?
**A.** much inferior in their ability to inhibit the interaction

**Q.** What about the “inhibition of FAM19A5 binding to coated LRRC4 protein (in words)” value [4] of the same molecule?
**A.** minimal effect

**Q.** And the “inhibition of FAM19A5 binding to coated LRRC4C protein (in words)” value [5]?
**A.** minimal effect
